Results published in patent US20240190939A1 (SHATTUCK LABS, published 2024).

T1: recombinant human PD-L2 (human, UniProt Q9BQ51 20-220)
T1 sequence (looked up): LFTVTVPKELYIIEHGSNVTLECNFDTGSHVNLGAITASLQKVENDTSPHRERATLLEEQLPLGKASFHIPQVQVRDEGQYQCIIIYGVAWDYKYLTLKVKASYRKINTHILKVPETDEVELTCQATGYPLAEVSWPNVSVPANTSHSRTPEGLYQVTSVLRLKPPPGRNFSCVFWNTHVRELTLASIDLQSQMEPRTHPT


Tests used:
recombinant human PD-L2 = target: T1, recombinant human PD-L2; test: biolayer interferometry (Octet), recombinant human PD-L2
human LTBR-His = target: T2, human LTBR-His (human, UniProt P36941 31-227, limits assumed); test: ELISA: hLTBR-Fc His Tag capture, 'hLIGHT Biotinylated' detection, streptavidin HRP
T2 construct: also called hLTBR-His
T2 sequence (P36941 31-227 limits assumed): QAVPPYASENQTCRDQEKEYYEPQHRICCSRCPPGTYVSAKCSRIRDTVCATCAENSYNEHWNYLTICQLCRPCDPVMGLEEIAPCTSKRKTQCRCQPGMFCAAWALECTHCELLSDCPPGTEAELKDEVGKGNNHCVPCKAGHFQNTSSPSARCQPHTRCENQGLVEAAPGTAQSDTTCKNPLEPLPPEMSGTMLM

[1] = target: T3, human PD-L1 on CHO-K1 cells (human, UniProt Q9NZQ7 19-290); test: flow cytometry on CHO-K1 cells expressing human PD-L1
T3 construct: whole, on cells; also called hPD-L1 engineered cell line; hPD-L1 over-expressing cell line
T3 sequence (Q9NZQ7 19-290): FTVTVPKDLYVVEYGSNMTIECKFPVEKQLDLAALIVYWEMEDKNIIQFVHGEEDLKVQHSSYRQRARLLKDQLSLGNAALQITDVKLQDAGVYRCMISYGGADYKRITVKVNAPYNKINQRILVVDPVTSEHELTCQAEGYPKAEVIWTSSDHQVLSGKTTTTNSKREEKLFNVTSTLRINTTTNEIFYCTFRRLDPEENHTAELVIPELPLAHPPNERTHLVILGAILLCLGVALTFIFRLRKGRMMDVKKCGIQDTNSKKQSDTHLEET
From the text: Cells were collected, washed, and stained with antibodies for the detection of the chimeric protein binding by flow cytometry.

hPDL1-Fc = target: T4, hPDL1-Fc (human, UniProt Q9NZQ7 19-238); test: Dual ELISA: hPDL1-Fc capture, hLTBR-His detection, 6x His HRP (signal needs both hPDL1-Fc and hLTBR-His bound)
T4 construct: not shown: Fc, not identified
T4 sequence (Q9NZQ7 19-238 limits assumed): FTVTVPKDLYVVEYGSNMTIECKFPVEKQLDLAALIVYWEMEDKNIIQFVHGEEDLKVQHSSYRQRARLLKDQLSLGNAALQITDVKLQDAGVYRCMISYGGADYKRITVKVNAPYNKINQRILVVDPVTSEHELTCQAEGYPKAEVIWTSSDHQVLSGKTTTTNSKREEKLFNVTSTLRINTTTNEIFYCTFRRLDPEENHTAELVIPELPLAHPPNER
Method: For each chimeric protein ELISAs were performed under the following conditions: Heavy+Light Chain captured and detected with Fc-HRP (FIG. 13A and FIG. 13B, top left), a murine LTBR-His captured and detected with an antibody directed to murine LIGHT (FIG. 13A, top right) or human LTBR-His captured and detected with biotinylated human LIGHT (FIG. 138, top right), and mPD-L1 captured and detected with an antibody directed to mLIGHT (FIG. 13A, bottom left; “Dual ELISA”) or hPDL1-Fc captured and detected with hLTBR-His/6×His-HRP (FIG. 13A, bottom left; “Dual ELISA”).

[2] = target: T5, mouse PVR on CHO-K1 cells (mouse); test: flow cytometry on CHO-K1 cells expressing murine PVR
T5 construct: whole, on cells; also called CHOK1/PVR; mPVR engineered cell line

recombinant CD155 = target: T6, recombinant CD155; test: ELISA: CD155/PVR capture, Fc-HRP detection
T6 construct: also called CD155/PVR

| binding result (recombinant human PD-L2) | EC50 (read off the curve) (human LTBR-His) [nM] | EC50 [1] [nM] | EC50 (read off the curve) (hPDL1-Fc) [nM] | EC50 [2] [nM] | EC50 (read off the curve) (recombinant CD155) [nM] | Binder |
| --- | --- | --- | --- | --- | --- | --- |
| binds | ~20 | 48 | ~10 | – | – | human PD-1-Fc-LIGHT chimeric protein (Fc fusion, also called hPD-1-Fc-LIGHT) LDSPDRPWNPPTFSPALLVVTEGDNATFTCSFSNTSESFVLNWYRMSPSNQTDKLAAFPEDRSQPGQDCRFRVTQLPNGRDFHMSVVRARRNDSGTYLCGAISLAPKAQIKESLRAELRVTERRAEVPTAHPSPSPRPAGQFQSKYGPPCPPCPAPEFLGGPSVFLFPPKPKDQLMISRTPEVTCVVVDVSQEDPEVQFNWYVDGVEVHNAKTKPREEQFNSTYRVVSVLTVLHQDWLSGKEYKCKVSSKGLPSSIEKTISNATGQPREPQVYTLPPSQEEMTKNQVSLTCLVKGFYPSDIAVEWESNGQPENNYKTTPPVLDSDGSFFLYSRLTVDKSRWQEGNVFSCSVLHEALHNHYTQKSLSLSLGKIEGRMDLQLHWRLGEMVTRLPDGPAGSWEQLIQERRSHEVNPAAHLTGANSSLTGSGGPLLWETQLGLAFLRGLSYHDGALVVTKAGYYYIYSKVQLGGVGCPLGLASTITHGLYKRTPRYPEELELLVSQQSPCGRATSSSRVWWDSSFLGGVVHLEAGEKVVVRVLDERLVRLRDGTRSYFGAFMV |
| – | – | – | – | 215 | ~5 | murine TIGIT-Fc-LIGHT chimeric protein (Fc fusion) chain 1: TIDTKRNISAEEGGSVILQCHFSSDTAEVTQVDWKQQDQLLAIYSVDLGWHVASVFSDRVVPGPSLGLTFQSLTMNDTGEYFCTYHTYPGGIYKGRIFLKVQESSDDRNGLAQFQTAPLG chain 2: LHQRLGDIVAHLPDGGKGSWEKLIQDQRSHQANPAAHLTGANASLIGIGGPLLWETRLGLAFLRGLTYHDGALVTMEPGYYYVYSKVQLSGVGCPQGLANGLPITHGLYKRTSRYPKELELLVSRRSPCGRANSSRVWWDSSFLGGVVHLEAGEEVVVRVPGNRLVRPRDGTRSYFGAFMV |
